Source: patent US20220213456

What was measured:
Assay in all cases: cleavage_in_vitro
[1] = system: T1, OMNI-42 (Caviibacter abscessus); settings: TXTL; PAM NNGMM (specific NTGCC); FIG. 3F states V2, table states V1
T1 sequence: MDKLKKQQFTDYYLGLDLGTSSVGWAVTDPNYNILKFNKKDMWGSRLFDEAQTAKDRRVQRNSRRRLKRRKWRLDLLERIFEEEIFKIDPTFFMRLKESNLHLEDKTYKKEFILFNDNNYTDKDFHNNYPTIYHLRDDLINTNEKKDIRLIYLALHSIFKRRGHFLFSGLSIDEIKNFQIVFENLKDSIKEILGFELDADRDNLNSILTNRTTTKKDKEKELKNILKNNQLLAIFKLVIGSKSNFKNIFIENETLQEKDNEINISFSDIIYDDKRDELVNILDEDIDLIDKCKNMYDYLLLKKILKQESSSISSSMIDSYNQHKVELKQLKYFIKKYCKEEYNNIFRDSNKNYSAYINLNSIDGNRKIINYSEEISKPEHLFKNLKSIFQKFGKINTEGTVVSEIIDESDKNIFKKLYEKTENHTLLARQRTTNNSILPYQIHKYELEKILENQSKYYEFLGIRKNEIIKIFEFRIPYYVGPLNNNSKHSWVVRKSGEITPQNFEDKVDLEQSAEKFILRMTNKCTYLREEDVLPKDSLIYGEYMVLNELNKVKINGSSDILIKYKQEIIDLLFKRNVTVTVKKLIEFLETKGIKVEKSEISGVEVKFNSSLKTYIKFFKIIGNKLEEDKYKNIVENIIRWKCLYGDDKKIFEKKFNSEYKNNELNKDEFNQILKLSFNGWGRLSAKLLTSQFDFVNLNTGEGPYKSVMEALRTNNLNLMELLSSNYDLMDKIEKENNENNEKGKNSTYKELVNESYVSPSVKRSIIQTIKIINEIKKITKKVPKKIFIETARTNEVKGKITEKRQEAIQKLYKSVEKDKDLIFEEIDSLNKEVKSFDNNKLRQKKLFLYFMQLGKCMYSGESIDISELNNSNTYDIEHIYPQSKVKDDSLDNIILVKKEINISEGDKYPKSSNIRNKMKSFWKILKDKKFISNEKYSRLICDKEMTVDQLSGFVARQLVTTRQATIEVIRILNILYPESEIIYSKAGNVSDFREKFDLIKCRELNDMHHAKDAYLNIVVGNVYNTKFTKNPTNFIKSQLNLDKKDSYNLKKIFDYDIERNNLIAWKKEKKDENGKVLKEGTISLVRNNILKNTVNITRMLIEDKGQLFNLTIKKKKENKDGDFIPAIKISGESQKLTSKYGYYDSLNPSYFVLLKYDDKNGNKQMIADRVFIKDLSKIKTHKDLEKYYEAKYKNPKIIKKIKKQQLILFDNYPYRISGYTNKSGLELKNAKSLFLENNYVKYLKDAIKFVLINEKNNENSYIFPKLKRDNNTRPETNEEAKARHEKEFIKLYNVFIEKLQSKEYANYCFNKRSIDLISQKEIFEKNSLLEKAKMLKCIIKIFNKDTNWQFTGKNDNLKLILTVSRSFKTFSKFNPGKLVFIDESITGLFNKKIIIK

[2] = system: T2, OMNI-46 (Carnobacterium funditum); settings: TXTL; PAM YAAAR
T2 sequence: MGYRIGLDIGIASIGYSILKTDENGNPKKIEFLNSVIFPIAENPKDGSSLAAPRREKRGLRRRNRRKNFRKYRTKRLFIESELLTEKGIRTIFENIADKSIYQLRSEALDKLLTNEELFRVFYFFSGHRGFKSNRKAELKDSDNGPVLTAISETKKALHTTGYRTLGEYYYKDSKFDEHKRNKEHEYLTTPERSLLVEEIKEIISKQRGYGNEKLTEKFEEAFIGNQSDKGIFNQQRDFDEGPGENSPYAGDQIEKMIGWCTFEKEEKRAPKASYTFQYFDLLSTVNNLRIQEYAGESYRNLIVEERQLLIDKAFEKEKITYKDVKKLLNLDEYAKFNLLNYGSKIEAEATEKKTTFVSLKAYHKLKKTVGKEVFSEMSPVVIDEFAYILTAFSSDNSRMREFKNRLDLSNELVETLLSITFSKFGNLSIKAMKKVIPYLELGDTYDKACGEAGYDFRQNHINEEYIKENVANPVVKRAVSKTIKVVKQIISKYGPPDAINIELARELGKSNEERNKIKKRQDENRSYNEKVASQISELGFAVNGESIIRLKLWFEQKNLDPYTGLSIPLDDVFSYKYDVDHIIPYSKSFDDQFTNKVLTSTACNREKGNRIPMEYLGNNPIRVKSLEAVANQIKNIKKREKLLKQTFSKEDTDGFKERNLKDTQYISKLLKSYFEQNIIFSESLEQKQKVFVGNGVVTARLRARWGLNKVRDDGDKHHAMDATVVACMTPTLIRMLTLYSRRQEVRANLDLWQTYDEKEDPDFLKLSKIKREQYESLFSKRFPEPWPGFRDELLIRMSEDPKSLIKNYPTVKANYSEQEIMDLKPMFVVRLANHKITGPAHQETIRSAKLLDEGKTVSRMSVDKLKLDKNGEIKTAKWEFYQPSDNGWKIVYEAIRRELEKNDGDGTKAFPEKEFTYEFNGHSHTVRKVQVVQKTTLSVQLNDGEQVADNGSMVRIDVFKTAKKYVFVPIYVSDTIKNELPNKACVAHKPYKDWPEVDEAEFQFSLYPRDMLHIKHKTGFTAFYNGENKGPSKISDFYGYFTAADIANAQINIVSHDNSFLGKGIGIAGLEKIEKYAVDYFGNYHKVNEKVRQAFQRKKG

[3] = system: T3, OMNI-43 (Arcobacter sp. SM1702); settings: TXTL; PAM YAAAR; V1, V2 tested
T3 sequence: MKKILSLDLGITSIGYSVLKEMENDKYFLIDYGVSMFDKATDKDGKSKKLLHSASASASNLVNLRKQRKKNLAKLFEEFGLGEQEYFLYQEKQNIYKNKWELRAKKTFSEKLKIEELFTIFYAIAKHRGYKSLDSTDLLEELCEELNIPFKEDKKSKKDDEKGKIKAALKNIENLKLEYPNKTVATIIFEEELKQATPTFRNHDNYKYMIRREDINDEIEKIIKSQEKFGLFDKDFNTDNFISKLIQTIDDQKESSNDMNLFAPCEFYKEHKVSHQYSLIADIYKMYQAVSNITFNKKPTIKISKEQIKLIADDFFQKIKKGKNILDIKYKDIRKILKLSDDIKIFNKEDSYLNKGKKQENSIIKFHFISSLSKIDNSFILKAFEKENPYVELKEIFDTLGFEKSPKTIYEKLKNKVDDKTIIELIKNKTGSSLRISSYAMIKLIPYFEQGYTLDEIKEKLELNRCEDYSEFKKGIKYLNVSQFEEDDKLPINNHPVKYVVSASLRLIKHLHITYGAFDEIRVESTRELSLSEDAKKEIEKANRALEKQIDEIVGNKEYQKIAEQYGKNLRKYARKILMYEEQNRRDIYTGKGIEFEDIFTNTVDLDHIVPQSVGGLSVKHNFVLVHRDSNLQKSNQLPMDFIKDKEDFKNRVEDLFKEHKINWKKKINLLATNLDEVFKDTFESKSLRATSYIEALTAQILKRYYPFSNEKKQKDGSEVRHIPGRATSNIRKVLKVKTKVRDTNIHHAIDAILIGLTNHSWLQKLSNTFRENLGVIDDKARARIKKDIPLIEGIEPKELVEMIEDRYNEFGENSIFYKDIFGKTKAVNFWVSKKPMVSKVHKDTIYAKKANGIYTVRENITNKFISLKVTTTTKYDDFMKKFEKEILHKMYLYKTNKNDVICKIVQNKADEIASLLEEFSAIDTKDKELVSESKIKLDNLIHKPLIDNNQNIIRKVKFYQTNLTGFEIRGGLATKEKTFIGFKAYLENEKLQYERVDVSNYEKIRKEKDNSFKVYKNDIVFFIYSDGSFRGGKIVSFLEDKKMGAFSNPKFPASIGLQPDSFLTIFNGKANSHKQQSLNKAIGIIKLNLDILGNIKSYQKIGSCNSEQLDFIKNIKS

[4] = system: T4, OMNI-44 (Arcobacter mytili); settings: TXTL; PAM NRHAA; FIG. 3H states V2, table states V3
T4 sequence: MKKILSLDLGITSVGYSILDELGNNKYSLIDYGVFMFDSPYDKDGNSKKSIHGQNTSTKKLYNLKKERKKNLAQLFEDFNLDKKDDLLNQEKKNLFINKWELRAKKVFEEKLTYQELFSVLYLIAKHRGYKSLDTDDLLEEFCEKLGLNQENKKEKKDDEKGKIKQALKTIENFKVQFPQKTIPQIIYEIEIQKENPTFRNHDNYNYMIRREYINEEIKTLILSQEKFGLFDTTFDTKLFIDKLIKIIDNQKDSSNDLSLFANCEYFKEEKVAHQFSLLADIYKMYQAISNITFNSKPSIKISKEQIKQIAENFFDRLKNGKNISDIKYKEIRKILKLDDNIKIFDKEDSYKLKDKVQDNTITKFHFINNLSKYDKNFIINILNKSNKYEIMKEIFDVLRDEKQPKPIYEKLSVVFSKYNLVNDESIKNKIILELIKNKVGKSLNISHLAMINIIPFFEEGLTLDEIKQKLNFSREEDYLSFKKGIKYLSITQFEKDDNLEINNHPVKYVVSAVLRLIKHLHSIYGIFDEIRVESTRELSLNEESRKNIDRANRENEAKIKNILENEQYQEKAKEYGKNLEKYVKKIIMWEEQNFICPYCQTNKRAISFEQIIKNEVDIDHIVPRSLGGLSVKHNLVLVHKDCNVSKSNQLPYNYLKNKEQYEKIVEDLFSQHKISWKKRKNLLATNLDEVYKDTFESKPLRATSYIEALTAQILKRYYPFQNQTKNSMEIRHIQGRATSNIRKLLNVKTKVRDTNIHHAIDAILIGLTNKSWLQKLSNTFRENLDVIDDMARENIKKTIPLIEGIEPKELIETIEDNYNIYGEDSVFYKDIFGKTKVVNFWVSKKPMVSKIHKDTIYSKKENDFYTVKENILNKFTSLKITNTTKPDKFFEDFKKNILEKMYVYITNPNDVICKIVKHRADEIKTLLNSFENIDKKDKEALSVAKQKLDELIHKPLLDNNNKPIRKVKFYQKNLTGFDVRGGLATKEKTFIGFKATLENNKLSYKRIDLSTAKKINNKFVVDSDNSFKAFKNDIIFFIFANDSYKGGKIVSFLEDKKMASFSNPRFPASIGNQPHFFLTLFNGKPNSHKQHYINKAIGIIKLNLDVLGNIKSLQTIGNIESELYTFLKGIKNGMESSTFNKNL

Which activity (1-depletion score) [1] does the source give for “GGAAGAGCAGAGCCUUGGUCUCGUUUAAGAGUUAUGUAAGAAAUUACAUAACGAGUUUAAAUAAAAAUUUAUUGAAAUCGUCAAAUUAUUUUUGACUAGCCUCUUUUUGAAGAGGUUUUUUU / GGAAGAGCAGAGCCTTGGTCTCNNNNNNNN / NNNNNNNNGAGACCAAGGCTCTGCTCTTCC [OMNI-42 T2 sgRNA V2 ; pbPOS T2 protospacer 8N PAM library]” here?
Its activity (1-depletion score) is 0.91.

Which activity (1-depletion score) [2] does the source give for “GGAAGAGCAGAGCCUUGGUCUCGCUAUACGUUCCUUACAAAAUCGGGAAACCGACUUUGCAAGGAACGUAUAGUAAAGGGAGUGCUCUGCACUCUCCUGUAAAGCACUAACCCCAUUUUCUUCGGAGAAUGGGGUUAUCUUUUU / GGAAGAGCAGAGCCTTGGTCTCNNNNNNNN / NNNNNNNNGAGACCAAGGCTCTGCTCTTCC [OMNI-46 T2 sgRNA V2 ; pbPOS T2 protospacer 8N PAM library]” here?
The activity (1-depletion score) was 0.95.

For “GGAAGAGCAGAGCCUUGGUCUCGUUUUAAUACCCCUACAAACUGGAAACAGUUUAAUAGGGGUAUUAAACUAAGGUUGCUAUUUUAGCAACUGACUUUAGGCAGUGGUUUCGACCACUUGCCCUUUUUU / GGAAGAGCAGAGCCTTGGTCTCNNNNNNNN / NNNNNNNNGAGACCAAGGCTCTGCTCTTCC [OMNI-43 T2 sgRNA V1 ; pbPOS T2 protospacer 8N PAM library]”, which activity (1-depletion score) [3] is on record?
Its activity (1-depletion score) is 0.91.

For “GGAAGAGCAGAGCCUUGGUCUCGUUUUAAUACCCCUAUAAACUACUAGAAAUAGUAGUUUAAUAGGGGUAUUAAACUAAGACUACUUUAAUAGUAGUUGAUUUUAGGAGAUAGUUUUUCUAUCUCCCUUUUU / GGAAGAGCAGAGCCTTGGTCTCNNNNNNNN / NNNNNNNNGAGACCAAGGCTCTGCTCTTCC [OMNI-44 T2 sgRNA V2 ; pbPOS T2 protospacer 8N PAM library]”, which activity (1-depletion score) [4] is on record?
Its activity (1-depletion score) is 0.96.
